# Reference: publication PMC12196045
# Biological target: T1, OmpR-N6His (Xenorhabdus nematophila YL001) (UniProt D3VF01)
# T1 sequence: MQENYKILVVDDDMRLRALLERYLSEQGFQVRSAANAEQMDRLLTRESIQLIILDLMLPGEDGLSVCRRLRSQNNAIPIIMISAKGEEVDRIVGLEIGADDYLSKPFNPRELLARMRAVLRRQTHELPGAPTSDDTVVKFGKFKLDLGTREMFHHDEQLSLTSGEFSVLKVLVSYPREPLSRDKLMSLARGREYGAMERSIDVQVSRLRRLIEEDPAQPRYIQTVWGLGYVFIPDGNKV
# Test: EMSA
# Settings: EMSA: 5x buffer 250 mM Tris, 250 mM KCl, 0.5 mM DTT, 50 mM MgCl2, 25% glycerol, pH 8.0 (1x: 50 mM Tris, 50 mM KCl, 0.1 mM DTT, 10 mM MgCl2, 5% glycerol); 30 min
row,Sequence,binding
1,CCGGCCTTTGGTAATAAATCAGGATAATTGAGTGATGTAAACGGGAAAACAAGGGGAAAAAACCAAAGCATAAGCAATGATTGCCAATACGGTTAATGGCCTTAAAATACATGTGGTTAGTTTCTATTGAATATGGGGTTTCGGTAAAAGTCATGGATATTGCGGGCATGGAGCATCTTGGGAGCTGAAAC (double strand) [PompR191],no binding
2,TAATTCTTCCTCCAAGAGCAAAATACGATAACAAACTCCGCTATTCCATGACTTTACGTTCTTTTACATGCTCTGACGCTAGTTTGCAGCCGCAGGGTTATAGTTATCCACACTGAATCGAATAGAGCTATTCGAGAAAGCGGAGAAATTTAATGC (double strand) [PcpxR156],no binding
3,TACGGCTACGTAAATAATAAAGCATTGGTTATGTCTGTTTGTTTTTTTGTACAAGGACGAATCTCAATTTAATTTCGAAAAATTGAGGTCATTGATCTTATTAATGGGTAGGTTGTTTACGATGTCAAAATGTTGCATTTGAAAACAGACAATCTTCCATTATTTAATGAGATCACTGCGATAAGTTTAGTGGAGTGAAATA (double strand) [PleuO202],no binding
4,TTTGGATTGCATAAATTTTGTTAAGAAAGGAGAAAAATAAAACCCCATGATAGTCTAAATAGTAAAAAAATGAAGTAAACCTTTGCCCTATTTAATAGAGTAGAGTAATGTCACAATCGGTATTATTTTATTTGATACTGCTGAAGTAAAAACACCAGGTTAGTTAGTAATTAAAATCAAAAAAAAGTGATGAATAAACAATG (double strand) [PlrhA203],no binding
